Assay [1] addresses T1, FOLR1 (human, UniProt P15328). Description: FACS, FOLR+ KB cells. In general terms: A flow cytometer gives signals particle by particle.
The target of assay [2] is T1, FOLR1. Description: BLI, 25C.

T1 sequence (P15328 25-234): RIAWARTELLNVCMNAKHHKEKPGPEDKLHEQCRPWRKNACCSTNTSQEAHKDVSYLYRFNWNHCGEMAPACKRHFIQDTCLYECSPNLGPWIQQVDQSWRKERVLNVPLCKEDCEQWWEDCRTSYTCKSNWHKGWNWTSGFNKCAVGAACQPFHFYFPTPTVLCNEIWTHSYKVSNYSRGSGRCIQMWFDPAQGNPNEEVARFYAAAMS

B1: b-SpyTag003(D2)-K(folate) (peptide)
chain: RGVPHIVMVDAYKRYKG
modifications: biotinylated; two D-arginine substitutions; additional C-terminal Lys conjugated to folate (folate is the FOLR1-binding moiety)
As usually defined, the Kd is the concentration at which binding is half-saturated. Lower therefore signals a tighter complex. Regarding B1, the dissociation constant (Kd) in assay [1] turned out to be 16.1 nM; in assay [2] it was 0.345 nM.

Source of the values: patent US20260345776 (published 2026).
